Here are results for 1 molecule from article PMC9505750.

Holding throughout (conditions): remark: other sources report otherwise
In assay [1] the target is full-length wild-type APOBEC3G (human), Q9HC16. Briefly: SEC-SAXS; ligand-free A3Gfl; SEC (Superdex 200 Increase 5/150 GL) with co-flow SAXS, 25 °C, 2.5 mg/mL A3Gfl loaded (about 1.3 mg/mL after SEC), 50 mM phosphate pH 6.0, 200 mM NaCl, 2 mM β-ME, 5% glycerol, 200 µM Na2-EDTA; species separated by SVD/EFA and Gaussian decomposition. For orientation: In gel filtration, larger molecules generally elute earlier.

Assay [2] shares this target. The assay is described as above. This is another data set of the same source.
Assay [3] has the same target. Briefly: SEC-SAXS; A3Gfl 2.5 mg/mL with the 40-mer ssDNA CCdZ-T30-oligo at a 1 to 2 molar ratio; SEC-SAXS, 25 °C, 50 mM phosphate pH 6.0, 200 mM NaCl, 2 mM β-ME, 5% glycerol, 200 µM Na2-EDTA; Gaussian decomposition.

B1: full-length wild-type APOBEC3G, Q9HC16 1-384 (enzyme)
chain: MKPHFRNTVERMYRDTFSYNFYNRPILSRRNTVWLCYEVKTKGPSRPPLDAKIFRGQVYSELKYHPEMRFFHWFSKWRKLHRDQEYEVTWYISWSPCTKCTRDMATFLAEDPKVTLTIFVARLYYFWDPDYQEALRSLCQKRDGPRATMKIMNYDEFQHCWSKFVYSQRELFEPWNNLPKYYILLHIMLGEILRHSMDPPTFTFNFNNEPWVRGRHETYLCYEVERMHNDTWVLLNQRRGFLCNQAPHKHGFLEGRHAELCFLDVIPFWKLDLDQDYRVTCFTSWSPCFSCAQEMAKFISKNKHVSLCIFTARIYDDQGRCQEGLRTLAEAGAKISIMTYSEFKHCWDTFVDHQGCPFQPWDGLDEHSQDLSGRLRAILQNQEN
The stoichiometry N is a count of units in the complex or per binding partner. For B1, the stoichiometry N in assay [1] was determined as 2; in assay [2], 4; in assay [3] it was 4.
